Data reported in the RNAGym collection of RNA variant scans (doi:10.1073/pnas.2313332121).
This sample holds only a part of the variants without activity.

B1: TPR 5TU (parent)
chain: GGAUCUUCUCGAUCUAACAAAAAAGACAAAUCUGCCACAAAGCUUGAGAGCAUCUUCGGAUGCAGAGGCGGCAGCCUUCGGUGGCGCGAUAGCGCCAACGUUCUCAACUAUGACACGCAAAACGCGUGCUCCGUUGAAUGGAGUUUAUCAUG

Variants of: B1
Test: polymerase ribozyme fitness, log enrichment relative to wild type (log ratio); higher = more active; in vitro selection for triplet polymerase activity
Procedure, shortened: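 Mutant libraries were PCR-built and transcribed for each subunit of a heterodimeric triplet polymerase ribozyme and selected for one round in triplicate at −7 °C, frozen, before gel excision of extended constructs and streptavidin-bead capture. Input and output libraries were Illumina-sequenced, keeping genotypes with ≥10 input reads and ≥1 read per output. Fitness is a logarithmic ratio of genotype to wild-type enrichment, in base 2, using inverse-variance-weighted replicate averages.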

| Variant | polymerase ribozyme fitness (log ratio) |
| --- | --- |
| U53A G117A | -0.303 |
| A49C C79G G94C | ≤ -4.2 |
| A41C C85U C87U G133C G143A | -4.18 |
| A26U G59A C87G | ≤ -4.2 |
| A49G U55A A73G | -3.1 |
| C85G A119U | -3.69 |
| C38U G50U U56A G74U C75G C125U U139A | ≤ -4.2 |
| A23G A40C G81A U145C | -3.98 |
| C32U C85A C99G G133C U139G | ≤ -4.2 |
| A12G C75G C93U C108U A110C | ≤ -4.2 |
| G84U U104G C125A | -3.09 |
| G50U G81A U102G | -2.74 |
| U33A C76G G84C C85G C87G A89G G136C U145A | ≤ -4.2 |
| U56A C57A C85U C87U | -0.523 |
| U6G A73C C99U | ≤ -4.2 |
| C72A U77A G88C C93G U111G A137U U139G | ≤ -4.2 |
| A3C U9A A30U G48A U53A C54U G67U C93G G126A U135G | ≤ -4.2 |
| U13A A73G G84A | -0.387 |
| A19C C51U A52G G84U A89U G124U G141U | -1.23 |
| C93U C96A | -1.65 |
| G94C C131U | -1.79 |

| Variant | polymerase ribozyme fitness (log ratio) |
| --- | --- |
| G50C C87U C103G A121G C123U C125G | ≤ -4.2 |
| U55A A73C C87U G92A | -2.04 |
| C5U U13A A23G C36U G46A A97U C103U | ≤ -4.2 |
| A97G C123G C131G | -2.72 |
| C8A A142C | -4.11 |
| C54A U55A A106G G141A G143C C149G | ≤ -4.2 |
| U6G A60C C85A C96U G124U | -4.11 |
| U6A U61A C93A | ≤ -4.2 |
| U56A G136A | -0.463 |
| U31G C116G U144C | -4.03 |
| A12C C18G A40U C123U G136U | -3.09 |
| C72U C87A A98U A138C | ≤ -4.2 |
| A12C C99A A119G U145C | -1.83 |
| A47G C63G G74C A120G | ≤ -4.2 |
| A73U C93U G136A | -1.59 |
| A24G G74A C93G G140C U151G | ≤ -4.2 |
| C96A U139C | -3.61 |
| C114A | -2.72 |
| G59U C69U C87G C105G C129A G141A | ≤ -4.2 |
| A52U G59A A98G | -1.21 |
| A40G C96U | -1.81 |

| Variant | polymerase ribozyme fitness (log ratio) |
| --- | --- |
| A39U C51U U61G A89U | ≤ -4.2 |
| U53A C93A C99U G141U | ≤ -4.2 |
| A22C C75G G88U A91G A110G C116A G136A | ≤ -4.2 |
| U7G U13A A17U A20C G50A A122C G141U U151G | ≤ -4.2 |
| A122C C149U | -1.16 |
| C27G A29C C51A A73U G83A A97U U151A | ≤ -4.2 |
| A3U G83A C87U U111G | ≤ -4.2 |
| A30U C57A A73G G81C G92U G141A U148A | ≤ -4.2 |
| C87U A98G | -1.67 |
| G83U A113U | -2.14 |
| G11U G25C G71C C95G C103A C116G | ≤ -4.2 |
| U33C G59A A60U U145G | -4 |
| A49G G84U U145G | -3.09 |
| G11C A91U | -4.11 |
| A47C U61A G140U U145G | ≤ -4.2 |
| A19U C69G C85U U134G G152U | ≤ -4.2 |
| U4C C35U A47C U78G G136C | ≤ -4.2 |
| A12U G50A C85A G88A A121G | ≤ -4.2 |
| A37U U55A G58C A142U | -2.45 |
| C63A A64C C72U A89U U130G | ≤ -4.2 |
| C54U G86U C93A A97U A120G | -1.29 |

| Variant | polymerase ribozyme fitness (log ratio) |
| --- | --- |
| U82G C125G | -1.76 |
| C87A A107C U139C U151A | ≤ -4.2 |
| G70A G88C C96G U134G | ≤ -4.2 |
| U15C A21C U61A G62C C95A U104A A138U | ≤ -4.2 |
| A49G G50U C51U C96U A98C G126A U134G U146A | -3.95 |
| G34U A39U U53A A64U C116U U146G | ≤ -4.2 |
| A23C C87G | ≤ -4.2 |
| A23U C93A | ≤ -4.2 |
| C85U U139C | -3.16 |
| U56G C63U C93G | -3.47 |
| C54U C93G U145A | ≤ -4.2 |
| U6C A17U A64U A73U C85G U127A U130G A142G | ≤ -4.2 |
| C5G A40C C69A G70U A89C | ≤ -4.2 |
| C32U C43U G92A U146G | ≤ -4.2 |
| C5U G11A A29U G70C G84A C96U | ≤ -4.2 |
| U15G A22U U56A A66C G117A A138G U146C | ≤ -4.2 |
| A23U U55A G88A C114A G136C | ≤ -4.2 |
| C27A C54G C105U | ≤ -4.2 |
| A17U C35A C69G U78G G84A A91G C103A | ≤ -4.2 |
| G11A C54U G83A A147U | -0.578 |
